Data reported in the supplement of paper PMC9170038.

Experiments:
[1] = system: MS2 coat protein; experiment: apparent KD of MS2 coat protein; designed switch direction (-1 OFF switch, 1 ON switch): 1; higher = weaker reporter binding; conditions: Eterna round: R98
Description: (§1)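 RNA-MaP: designed FMN/MS2 RNA switches (84 nt design region) are transcribed on-chip within common flanks and titrated with SNAP-549-labelled MS2 coat protein (about 1-3000 nM) in 100 mM Tris pH 7.5, 80 mM KCl, 4 mM MgCl2, without or with 200 uM FMN. Median apparent KD per design; activation ratio = KD,OFF / KD,ON.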

[2] = system: MS2 coat protein; experiment: apparent KD of MS2 coat protein; higher = weaker reporter binding; conditions: Eterna round: R101
Description: as §1

[3] = system: MS2 coat protein; experiment: apparent KD of MS2 coat protein, switch ON state; designed switch direction (-1 OFF switch, 1 ON switch): 1; higher = weaker reporter binding; conditions: FMN input: 0 or 200 uM; Eterna round: R93 (includes R88 designs)
How it was run: (§2)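 With or without constant ligand, designed RNA switches in 100 mM Tris-HCl pH 7.5, 80 mM KCl and 4 mM MgCl2 were titrated with SNAP-549-labelled MS2 coat protein. Concentrations went up in twofold steps from 0.7 or 1.5 nM to 3 µM. The switches had been transcribed on-chip from Illumina sequencing clusters, and apparent KD is the per-design median of normalised cluster binding-curve fits.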

[4] = system: MS2 coat protein; experiment: apparent KD of MS2 coat protein, switch OFF state (with FMN for OFF switches, without FMN for ON switches); designed switch direction (-1 OFF switch, 1 ON switch): 1; higher = weaker reporter binding; conditions: FMN input: 0 or 200 uM; Eterna round: R93 (includes R88 designs)
How it was run: as §2

Sequence	apparent KD of MS2 coat protein ([1]; input ligand: FMN 200 uM) [nM]	apparent KD of MS2 coat protein ([1]; input ligand: none) [nM]	apparent KD of MS2 coat protein [3] [nM]	apparent KD of MS2 coat protein [4] [nM]	further results
AAAACAUGAGGAUCACCCAUGUAAAGUUCGGAAAGUUAGAGUGAGGAUAUACAAAUUUUUAUUUAGUAGAAGGCACUGGGUACA [JR_SSNG3_Sub032Nu]	24.8	26.7	–	–	–
AAAACAUGAGGAUCACCCAUGUAUAGAUCGGUUGUUAGGAGUGAGGAUAUGCUUAAAAUAAGGUAGCAGAAGGCACUGGGUACA [JR_SSNG3_Sub071]	23.6	15.3	–	–	–
AAACUGCCACAUGAGGAUCACCCAUGUAAAUAAAGUAUUUGAAGAAGGGCGAUAGCAAAGCUAUCGCAGGAUAUUCUCAGGCAG [#GuReductionToAU - jl-sng2-2.35] (puzzle (switch architecture): Inverted Same State NG 3)	–	–	–	–	apparent KD of MS2 coat protein ([2]; input ligand: FMN 200 uM): 8.34 nM; apparent KD of MS2 coat protein ([2]; input ligand: none): 43.7 nM
AAAUAAAAUAUAGGAUAUGGAAACAUGAGGAUCACCCAUGUAAAAUAAAAUAAAUAAUAAUAUAACCAGAAGGAUAAAAUAUAA [LRO002_SS NG 2]	36.1	33.9	–	–	–
AAAUAAACCUUAGGAUAUGACUCCGAAACGGAGUCAGAAGGGAGGAUCACCCUCUUCAGCUCAGCGUCGAAAGACGCUGAGCAA [#SharedSequence ExNG1 - 21] (puzzle (switch architecture): Exclusion NG 1)	–	–	–	–	apparent KD of MS2 coat protein ([2]; input ligand: FMN 200 uM): 63.3 nM; apparent KD of MS2 coat protein ([2]; input ligand: none): 72.9 nM
AAAUAAAUUGAAGGAUAUCAGGGUGCACCUCAGUAAAACUGAGGUGCACCCUGAGAAGGUCGAGGAUCACCCGACCUAAAUAAA [#SharedSequence SLExNG1: 4-2] (puzzle (switch architecture): Small Loop Exclusion NG 1)	–	–	–	–	apparent KD of MS2 coat protein ([2]; input ligand: FMN 200 uM): 8.37 nM; apparent KD of MS2 coat protein ([2]; input ligand: none): 7.63 nM
AAAUGUACGAAGAAGGCUCUGCCACUGGCCGAGAGAGGAUAUUCACACAUGAGGAUCACCCAUGUCGAACAAAGUACACAGAGC [EternaBot1858] (puzzle (switch architecture): Inverted Same State NG 1)	–	–	–	–	apparent KD of MS2 coat protein ([2]; input ligand: FMN 200 uM): 7.05 nM
AAGAUACUUACAGGAUAUAGGGCAGAGGGUGCCCUAGAAGGGUGAACAUGAGGAUCACCCAUGUAUGUAUCAGAUUAGAAGGCA [Inleesti]	63.4	43.3	–	–	–
AGAAUGACAUGAGGAUCACCCAUGUUGGGAAAACCCGUAACUCAGGAUAUGUACGCGAAAGACCGACAGAAGGGAGAUCUACAC [Amaes]	43.3	37.4	–	–	–
AUAGGUUAAGGAGGAUAUAGAGGGAGAAGUAAACAUGAGGAUCACCCAUGUAUUUAAUUAGUUUACUAGAAGGCUUGUGAUUGU	50.9	45.9	–	–	–
CAGCAAUUCUUAGGAUAUGCUCAGGAAUACUGAGCAGAAGGAAGAUAUACCUGAGGAUCACCCAGGUUAAACUGAAGCUGAAUA [Same State NG1 - A3C, U17G Submission 7B]	17.4	15.7	–	–	–
CAUGUCCUCACAGGAUAUGCACCACUUUGUGGUGCAGAAGGGUGGAAACAUGAGGAUCACCCAUGUGGACAUGAUAUAUUUAAU [Denovo 7]	22.4	164	–	–	–
CGAGACACUUGAGGAUAUGCUCAGGAUAACUGAGCAGAAGGCAGGAAAACCUGAGGAUCACCCAGGUAACUGGAAAGUCUCGAA [Same State NG1 - A3C, U17G Submission 5F-G46A]	16.9	17.9	–	–	–
CUGCAAUUCUUAGGAUAUGCUCAGGAUAACUGAGCAGAAGGAAGAUAUACCUGAGGAUCACCCAGGUUAAACUGGAGCAGAAUA [Same State NG1 - A3C, U17G Submission 8B]	33.6	179	–	–	–
CUGCGAUUCUUAGGAUAUCGAGUGGAAUACACUCGAGAAGGAAGAAUAACCUGAGGAUCACCCAGGUAAUACUGAAGCAGAAUA [Same State NG1 - A3C, U17G Submission 9C]	23.4	32.7	–	–	–
GCACUCAAGUUAGGAUAUGGAUCGGAAACCGAUCCAGAAGGAACACGAAAACAUGAGCAUCAGCCGUGUUCCAGAAACGAGUGC [SameSame 14 - Jieux - Same State NG 1]	347	917	–	–	–
GGACGUCACAUUAACAUGAGGAUCACCCAUGUCAAAAGACAUGAGGAUAUGGAUCCUAAUUGGAUCCAGAAGGCAUGGACGUCC [EliMod 1 - Jieux - Same State NG 3]	38.9	680	–	–	–
GGAUCCAUCACAGGAUAUGCUGGACUUUGUCCAGCAGAAGGGUGACAUGAGGAUCACCCAUGUACAAAGGAUCCUAUAUUUAAU [Denovo 28]	45.2	377	–	–	–
GGGAGACAUGAGGAUCACCCAUGUGAGAAGAGGCGAGGAUAUCGAAAGAAAGAAGAGAAACGAGAAGGCGCGAGUA [salish99-SS1-050]	–	–	29.7	65.5	–

Sequence	apparent KD of MS2 coat protein ([1]; input ligand: FMN 200 uM) [nM]	apparent KD of MS2 coat protein ([1]; input ligand: none) [nM]	apparent KD of MS2 coat protein [3] [nM]	apparent KD of MS2 coat protein [4] [nM]	further results
GGUCCAUCAUGAGGAUAUGGCACCUUAUUGGUGCCAGAAGGCAUGUCUUUUGACAUGAGGAUCACCCAUGUAAUAAAUUGGACC [Pyrimidine booster 6]	130	1920	–	–	–
GUAAGACAUGAGGAUCACCCAUGUAUGCGUCAGCAAGGAUAUGGGAAUAAAAGACAGAAACCAGAAGGUGCUGUUG [Enqudi]	–	–	26.1	153	–
GUAGCAUACCGAGGAUAUUCAUAUAUGAAAAUAACAUGAGGAUCACCCAUGUGGCGAAAGCCUUGGGAGAAGGCGGAAUGCUAC [Xeinanis 75 22]	34.4	490	–	–	–
GUGCACACUCGAGGAUAUCGGAGAUUUCUCCUUCGAGAAGGCGAUUCGUGCCGUGUUAUUCUGGACAUGAGGAUCACCCAUGUG [LRO026_SS NG 1 mod JR_SSNG1_Sub034]	35.4	110	–	–	–
GUGGACAUAGGAUAGGAUAUAUGAAUAAUUACAUGAGGAUCACCCAUGUCCAUUUAUAUGGGAACAUAGAAGGGUUGUAGUUAAC [Mat - Same state - Malcolm Mod - D131]	–	–	117	81.9	–
GUGGCCUAGGCACAGGAUAUGUUGCUCGUAACAUGAGGAUCACCCAUGUGCCUAUGAGAUUUAAUGCAGAAGGGUGCACGCCACG [Edbeso]	–	–	14.7	233	–
GUGUAAAGAAUCGAGGAUAUCCUGAAAAGCACAUGAGGAUCACCCAUGUAAGAGCGAGAAUAAUGGGAGAAGGCGAGUUAUCGGU [JR_SS002_Sub1711]	–	–	20.1	33	–
UACACGCUGGCGCAGGAUAUGUCGCUGGUGACAUGAGGAUCACCCAUGUAUACCAUUGCGGUUAAGCAGAAGGGUGAGAAGCGUG [Bidibeso]	–	–	23.5	89.8	–
UAGAGACAUGAGGAUCACCCAUGUAGGAUUAUGGGAGGAUAUACAAAGACGAGAGUCAGAGUAGAAGGCCUAGGAC [salish99-ss1-136(!)]	–	–	21.4	60.1	–
UAUAGACAUGAGGAUCACCCAUGUAGAAUUAUGGGAGGAUAUACAAAGACGAGAGUCAGAGUAGAAGGCCUAGGAU [salish99-ss1-154]	–	–	22.2	63.7	–
UAUAUAUGGUGAGGAUAUGCAAAGGAUCACCUUGUAGAAGGCAUCAGGGUAGAAGGUGCAAGGAUCACCUGUAAGGAUAUAUCC [pwkr2 ssNG1 DX.25]	447	1560	–	–	–
UCACUCACGUCAGGAUAUGGAUCGGAAAACGAUCCAGAAGGGACCUGCAAACGUGAGGAUCACCCACGUUCCAAUAACGAGUGA [SameSame 11 - Jieux - Same State NG 1]	29.7	35.4	–	–	–
UCAGUGCCGACGAAGGAUAUAGCGGGUGAGACAUGAGGAUCACCCAUGUAUGCAGAACUCAUCCUCUAGAAGGUUGAGACGGCAA [Onaaror]	–	–	101	84.3	–
UGAUCGCUUGGAGGAUAUCCAACUAUCAUAGUUGGAGAAGGCCAAGCUACAGAGCUAAGCUUGGAAGUCACUUCCGAUCAACAC [pwkr ssNG1 F9.4.3]	49.7	59.1	–	–	–
UGGAGACAUGAGGAUCACCCAUGUGAGAAGAGGCGAGGAUAUCGAAAGAAAGAAGAGAAACGAGAAGGCGCGAGAC [salish99-SS1-045]	–	–	25.2	41.9	–
UGGAUGGUAUGAGGAUAUGCGCGCGAAACGCGCGCAGAAGGCAUGUCAAUAGACAUGAGGAUCACCCAUGUAUUAUCCAUCCAA [MatMod 9 - Jieux - Same State NG 1]	39.4	300	–	–	–
UGUUCGAGUAGUGAGGAUAUUCAUGGGCCCACAUGAGGAUCACCCAUGUAAAGGACCGGGCCGAAGGAGAAGGCGCGUAAAAUUA [Esenan]	–	–	28.9	73.3	–
UUACAACAUGAGGAUCACCCAUGUAAACCCGACUAAGGAUAUGGAGUGAAAGAUAUCAUCCCAGAAGGUAGAAAUA [Istegeisis]	–	–	48.2	53.3	–
UUUACAUGAGGAUCACCCAUGUCUGUCACGCGUGUGUGCAAUCAGGAUAUGAUCUCAAGAAUGAAUUAGAAGGGAUAACGUGAG [Attempt 5]	354	366	–	–	–
